The values below come from the supplement of paper PMC7125110.

The labels stand for the following.
B1: glmS ribozyme (parent)
chain: AUAAAAGCGCCAGAACUACAGAAAUGUAGUUGACGAGGAGGAGGUUUAUCGAAUUUUCGGCGGAUGCCUCCAAA

Holding throughout (conditions): with glucosamine-6-phosphate
Variants of B1 are the subject of series [1]. Briefly: kcat; higher = faster cleavage; RNA array. Summed up:
(§1)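 Over ~14 h at 37 °C, tiles were imaged as glucosamine-6-phosphate (40 μM to 10 mM) in HEPES/KCl/Mg(OAc)2 buffer flowed across sequenced MiSeq chips. The chips carried barcoded ribozyme variants transcribed in situ by E. coli RNA polymerase and tracked with a hybridised Cy3 probe. After normalisation to baseline and to non-cleaving reference variants, one- or two-exponential decay fits of per-tile medians gave kobs. kcat and KM followed from weighted Michaelis–Menten fits across concentrations.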

The variants in series [2] derive from B1. Briefly: self-cleavage kobs at 640 uM GlcN6P; higher = faster cleavage; RNA array. In short, it runs like this:
as §1

The variants in series [3] derive from B1. Briefly: self-cleavage kobs at 2500 uM GlcN6P; higher = faster cleavage; RNA array. Summed up:
as §1

The variants in series [4] derive from B1. Briefly: self-cleavage kobs at 10000 uM GlcN6P; higher = faster cleavage; RNA array. In short, it runs like this: as §1
Variants of B1 are the subject of series [5]. Briefly: KM; higher = weaker cofactor use; RNA array. Summed up: as §1
The variants in series [6] derive from B1. Briefly: self-cleavage kobs at 160 uM GlcN6P; higher = faster cleavage; RNA array. Summed up: as §1
Variants of B1 are the subject of series [7]. Briefly: self-cleavage kobs at 40 uM GlcN6P; higher = faster cleavage; RNA array. Summed up: as §1

± gives the standard error. For part of these data: Fewer inactive variants are shown than the library holds.

For the variant G44U A64G, in the series with glucosamine-6-phosphate [1], the kcat was 0.000112 ± 2.4e-05 s⁻¹. Besides, the “self-cleavage kobs at 640 uM GlcN6P” value in the series with glucosamine-6-phosphate [2] is 9.74e-05 ± 4.6e-05 s⁻¹. The “self-cleavage kobs at 2500 uM GlcN6P” value in the series with glucosamine-6-phosphate [3] was found to be 5.94e-05 ± 1.4e-05 s⁻¹. The “self-cleavage kobs at 10000 uM GlcN6P” value in the series with glucosamine-6-phosphate [4] was 9.64e-05 ± 1.3e-05 s⁻¹.

Turning to G32U U56A, in the series with glucosamine-6-phosphate [1], the kcat came to 0.00196 ± 0.00014 s⁻¹. For the same variant, the KM in the series with glucosamine-6-phosphate [5] is 7.73 ± 0.9 mM. The “self-cleavage kobs at 160 uM GlcN6P” value with glucosamine-6-phosphate [6] is 3.3e-05 ± 1.3e-05 s⁻¹. In the series with glucosamine-6-phosphate [2], the “self-cleavage kobs at 640 uM GlcN6P” value was 0.000156 ± 2.9e-05 s⁻¹. For the same variant, in the series with glucosamine-6-phosphate [3], the “self-cleavage kobs at 2500 uM GlcN6P” value came out at 0.000494 ± 7.9e-05 s⁻¹. In addition, the “self-cleavage kobs at 10000 uM GlcN6P” value with glucosamine-6-phosphate [4] worked out at 0.0011 ± 9.2e-05 s⁻¹.

On to G13C A33G, for which the kcat in the series with glucosamine-6-phosphate [1] was less than 1e-05 s⁻¹. Moreover, the “self-cleavage kobs at 640 uM GlcN6P” value in the series with glucosamine-6-phosphate [2] is less than 1e-05 s⁻¹. Besides, the “self-cleavage kobs at 10000 uM GlcN6P” value in the series with glucosamine-6-phosphate [4] is less than 1e-05 s⁻¹.

Turning to C68U, the kcat with glucosamine-6-phosphate [1] was 0.00795 ± 0.003 s⁻¹. Moreover, the KM with glucosamine-6-phosphate [5] was 2.93 ± 1.2 mM. Further, the “self-cleavage kobs at 40 uM GlcN6P” value in the series with glucosamine-6-phosphate [7] turned out to be 0.000113 ± 1.6e-06 s⁻¹. Besides, the “self-cleavage kobs at 160 uM GlcN6P” value in the series with glucosamine-6-phosphate [6] is 0.000316 ± 1.2e-05 s⁻¹. The “self-cleavage kobs at 640 uM GlcN6P” value in the series with glucosamine-6-phosphate [2] is 0.0015 ± 6.4e-05 s⁻¹. For the same variant, in the series with glucosamine-6-phosphate [3], the “self-cleavage kobs at 2500 uM GlcN6P” value turned out to be 0.00371 ± 0.00012 s⁻¹.

For A12G C71A, the kcat in the series with glucosamine-6-phosphate [1] came out at 0.000639 ± 4.4e-05 s⁻¹. Also, the KM in the series with glucosamine-6-phosphate [5] amounted to 4.88 ± 0.5 mM. Further, in the series with glucosamine-6-phosphate [2], the “self-cleavage kobs at 640 uM GlcN6P” value worked out at 7.45e-05 ± 1e-05 s⁻¹. For the same variant, the “self-cleavage kobs at 2500 uM GlcN6P” value in the series with glucosamine-6-phosphate [3] came out at 0.000215 ± 3.9e-05 s⁻¹. The “self-cleavage kobs at 10000 uM GlcN6P” value in the series with glucosamine-6-phosphate [4] came out at 0.00043 ± 5.9e-05 s⁻¹.

Regarding G32U C58A, the kcat in the series with glucosamine-6-phosphate [1] is 0.00151 ± 0.00022 s⁻¹. Also, in the series with glucosamine-6-phosphate [5], the KM came out at 5.03 ± 1 mM. In addition, the “self-cleavage kobs at 160 uM GlcN6P” value with glucosamine-6-phosphate [6] was determined as 6.77e-05 ± 1.3e-05 s⁻¹. The “self-cleavage kobs at 640 uM GlcN6P” value in the series with glucosamine-6-phosphate [2] was found to be 0.000164 ± 1.4e-05 s⁻¹. In the series with glucosamine-6-phosphate [3], the “self-cleavage kobs at 2500 uM GlcN6P” value amounted to 0.000495 ± 4.5e-05 s⁻¹. The “self-cleavage kobs at 10000 uM GlcN6P” value in the series with glucosamine-6-phosphate [4] was 0.00102 ± 8.8e-05 s⁻¹.

On to G13C G29A, for which the kcat in the series with glucosamine-6-phosphate [1] is 0.000136 ± 1.6e-05 s⁻¹. For the same variant, in the series with glucosamine-6-phosphate [5], the Michaelis constant (KM) amounted to 3.07 ± 0.91 mM. Also, the “self-cleavage kobs at 640 uM GlcN6P” value with glucosamine-6-phosphate [2] stood at 3.33e-05 ± 1.2e-05 s⁻¹. For the same variant, in the series with glucosamine-6-phosphate [3], the “self-cleavage kobs at 2500 uM GlcN6P” value was 5.64e-05 ± 9.9e-06 s⁻¹. The “self-cleavage kobs at 10000 uM GlcN6P” value in the series with glucosamine-6-phosphate [4] worked out at 0.000106 ± 1.2e-05 s⁻¹.

As to A6C C8U G35C C58G, in the series with glucosamine-6-phosphate [1], the kcat was less than 1e-05 s⁻¹. Also, in the series with glucosamine-6-phosphate [2], the “self-cleavage kobs at 640 uM GlcN6P” value was less than 1e-05 s⁻¹. Also, the “self-cleavage kobs at 10000 uM GlcN6P” value with glucosamine-6-phosphate [4] was less than 1e-05 s⁻¹.

In the case of A52G C68U, the kcat with glucosamine-6-phosphate [1] amounted to 0.000874 ± 0.00036 s⁻¹. Besides, the “self-cleavage kobs at 40 uM GlcN6P” value in the series with glucosamine-6-phosphate [7] amounted to 2.35e-05 ± 7.7e-06 s⁻¹. Moreover, the “self-cleavage kobs at 160 uM GlcN6P” value with glucosamine-6-phosphate [6] worked out at 9.18e-05 ± 1.1e-05 s⁻¹. The “self-cleavage kobs at 640 uM GlcN6P” value with glucosamine-6-phosphate [2] came out at 0.00015 ± 1.7e-05 s⁻¹. The “self-cleavage kobs at 2500 uM GlcN6P” value with glucosamine-6-phosphate [3] worked out at 0.000377 ± 4e-05 s⁻¹. Also, in the series with glucosamine-6-phosphate [4], the “self-cleavage kobs at 10000 uM GlcN6P” value came to 0.000858 ± 9.2e-05 s⁻¹.

Turning to C10U A33U U54C, the kcat with glucosamine-6-phosphate [1] was determined as 4.81e-05 ± 4.1e-06 s⁻¹. In addition, the KM with glucosamine-6-phosphate [5] worked out at 3.72 ± 0.75 mM. In addition, the “self-cleavage kobs at 10000 uM GlcN6P” value with glucosamine-6-phosphate [4] came to 3.5e-05 ± 1.5e-05 s⁻¹.

As to U45A U69A, the kcat with glucosamine-6-phosphate [1] came to 0.000153 ± 3.8e-05 s⁻¹. For the same variant, the “self-cleavage kobs at 40 uM GlcN6P” value with glucosamine-6-phosphate [7] stood at 5.69e-05 ± 1.3e-05 s⁻¹. In addition, the “self-cleavage kobs at 640 uM GlcN6P” value with glucosamine-6-phosphate [2] is 9.56e-05 ± 2.4e-05 s⁻¹. In addition, in the series with glucosamine-6-phosphate [3], the “self-cleavage kobs at 2500 uM GlcN6P” value stood at 0.000129 ± 3.7e-05 s⁻¹. The “self-cleavage kobs at 10000 uM GlcN6P” value with glucosamine-6-phosphate [4] worked out at 0.000167 ± 2.1e-05 s⁻¹.

A42U G43U C61A: the kcat with glucosamine-6-phosphate [1] stood at 2.03e-05 ± 2.4e-06 s⁻¹.

On to A15C C16A C68G, for which the kcat with glucosamine-6-phosphate [1] was found to be 2.65e-05 ± 7.2e-06 s⁻¹. Also, the “self-cleavage kobs at 2500 uM GlcN6P” value with glucosamine-6-phosphate [3] turned out to be 2.94e-05 ± 1.3e-05 s⁻¹.

With U47G A48C, in the series with glucosamine-6-phosphate [1], the catalytic constant (kcat) was found to be 0.000154 ± 1.4e-05 s⁻¹. Besides, the KM with glucosamine-6-phosphate [5] was 2.25 ± 0.64 mM. Further, the “self-cleavage kobs at 40 uM GlcN6P” value with glucosamine-6-phosphate [7] was less than 1e-05 s⁻¹. Also, the “self-cleavage kobs at 2500 uM GlcN6P” value with glucosamine-6-phosphate [3] worked out at 9.31e-05 ± 3e-05 s⁻¹. The “self-cleavage kobs at 10000 uM GlcN6P” value with glucosamine-6-phosphate [4] worked out at 0.000124 ± 1.9e-05 s⁻¹.

As for A12U U69G, in the series with glucosamine-6-phosphate [1], the kcat stood at 0.000139 ± 1.8e-05 s⁻¹. Besides, the Michaelis constant (KM) with glucosamine-6-phosphate [5] is 0.437 ± 0.2 mM. For the same variant, the “self-cleavage kobs at 40 uM GlcN6P” value with glucosamine-6-phosphate [7] is 2.68e-05 ± 8.8e-06 s⁻¹. Further, the “self-cleavage kobs at 160 uM GlcN6P” value with glucosamine-6-phosphate [6] turned out to be 2.7e-05 ± 8.8e-06 s⁻¹. In addition, in the series with glucosamine-6-phosphate [2], the “self-cleavage kobs at 640 uM GlcN6P” value was determined as 9.2e-05 ± 1e-05 s⁻¹. Besides, the “self-cleavage kobs at 2500 uM GlcN6P” value in the series with glucosamine-6-phosphate [3] was 0.000109 ± 1e-05 s⁻¹. Besides, the “self-cleavage kobs at 10000 uM GlcN6P” value in the series with glucosamine-6-phosphate [4] was determined as 0.000145 ± 1.5e-05 s⁻¹.

In the case of A14C U65G C70U, in the series with glucosamine-6-phosphate [1], the turnover number (kcat) was found to be 0.0014 ± 0.00044 s⁻¹. Also, in the series with glucosamine-6-phosphate [6], the “self-cleavage kobs at 160 uM GlcN6P” value came to 4.59e-05 ± 1.6e-05 s⁻¹. In addition, the “self-cleavage kobs at 640 uM GlcN6P” value in the series with glucosamine-6-phosphate [2] was determined as 0.000315 ± 6.8e-05 s⁻¹. Also, the “self-cleavage kobs at 2500 uM GlcN6P” value with glucosamine-6-phosphate [3] was determined as 0.000467 ± 6.2e-05 s⁻¹. Also, the “self-cleavage kobs at 10000 uM GlcN6P” value in the series with glucosamine-6-phosphate [4] was 0.00104 ± 0.00015 s⁻¹.

In general, kcat refers to the maximal rate divided by the concentration of active sites. One may read the KM as the concentration of substrate that gives half-maximal velocity.
